# Results from patent publication EP4692122A1, “HUMANIZED ANTIBODIES TARGETING EPHA10” (priority 2023, dated 2024).
# B1: 1-1 (ADC) (conjugate)
# VH: QVTLKESGPTLVKPTQTLTLTCTFSGFSLSTSGMGVGWIRQPPGKALEWLAHIWWDDVKRYNPALKSRLTITKDTSKNQVVLTMTNMDPVDTATYYCARTSFPAGVDYWGQGTLVTVSS
# VL: DVVMTQSPLSLPVTLGQPASISCRSSQSLQNSNGNTCLNWFQQRPGQSPRRLIYRVSNRFSGVPDRFSGSGSGTDFTLKISRVEAEDVGVYYCLQVTHVPFTFGQGTKLEIKR
# modifications: non-natural residues
# Assays:
# [1] = biological target: T1, EphA10 fused with human Fc (Homo sapiens, UniProt Q5JZY3); assay: ELISA analysis of binding activity to EphA10; conditions: ELISA (FIG. 11, FIG. 20)
# T1 construct: a vector for expressing an extra cellular domain (ECD) of EphA10 or a FNIII domain of the ECD was produced; made in house; host or cells: Expi293F
# T1 sequence (Q5JZY3 34-565 limits assumed): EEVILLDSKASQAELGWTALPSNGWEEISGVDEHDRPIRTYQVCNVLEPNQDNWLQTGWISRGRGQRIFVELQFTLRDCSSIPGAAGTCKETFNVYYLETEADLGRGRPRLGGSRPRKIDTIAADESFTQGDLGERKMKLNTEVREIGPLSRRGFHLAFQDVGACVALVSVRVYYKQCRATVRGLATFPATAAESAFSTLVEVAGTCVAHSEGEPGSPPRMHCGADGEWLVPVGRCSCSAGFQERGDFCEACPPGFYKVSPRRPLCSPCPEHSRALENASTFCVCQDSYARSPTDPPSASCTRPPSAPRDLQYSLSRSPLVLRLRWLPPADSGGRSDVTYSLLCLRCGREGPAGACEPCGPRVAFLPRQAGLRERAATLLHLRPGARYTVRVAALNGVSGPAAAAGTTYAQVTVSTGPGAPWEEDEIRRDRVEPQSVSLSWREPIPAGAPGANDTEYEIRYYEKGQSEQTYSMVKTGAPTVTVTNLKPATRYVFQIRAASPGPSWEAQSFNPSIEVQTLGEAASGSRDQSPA
# Description: The binding activity to EphA10 of the five EphA10-binding humanized antibodies purified in Example 3 was analyzed by ELISA. Specifically, 4 µg/ml of EphA10 fused with human Fc was diluted with a 0.05 M Na2CO3 (pH 9.6) solution and immobilized in 50 µl of a Flat Bottom Polystyrene High Bind 96-well microplate (costar) at 4°C for 16 hours, and then blocked with 100 µl of 4% skim milk (GenomicBase) at room temperature for 2 hours. […] 50 µl of a 1-Step Ultra TMB-ELISA substrate solution (Thermo Fisher Scientific) was added to develop color, and then added with 50 µl each of 2 M H2SO4 to terminate the reaction, and then analyzed using an Epoch microplate spectrophotometer (BioTek). […]
# As the sequencing result, it was confirmed that a free cysteine amino acid that was not involved in disulfide bonds existed in the CDR region of the light chain of the EphA10-specific humanized antibody (FIG. 10). […] To verify this, the binding activities of EphA10-specific humanized antibody 1-1 and EphA10-targeting ADC antibody 1-1 (ADC) after ADC production were analyzed and compared by ELISA.
# In Example 8 above, the binding activity to EphA10 of antibodies 1-1-A, 1-1-S, 1-2-A, and 1-2-S, in which the free cysteines present in the light chains of two types of EphA10-specific humanized antibodies 1-1 and 1-2 were substituted with serines and alanines, was analyzed by ELISA. […]
# [2] = system: hEphA10 overexpressing cell line; assay: Cancer cell killing by cell survival analysis using ATP measurement (CellTiter-Glo); assay type: cell-based, human; conditions: stated as a consequence of the lost EphA10 binding of the ADC (FIG. 11)
# Description: To confirm the efficacy of ADC in vitro, a cancer cell killing effect was confirmed through cell survival analysis using ATP measurement. Specifically, MDA-MB-231 naive cells (control group), a mock cell line (negative control group), and a hEphA10 overexpressing cell line were dispensed at 2 × 10^4 per well in a 96-well white plate (SPL), respectively, and the following day, the ADC produced in Example 6 was diluted in RPMI (Capricorn) for each concentration, treated by 100 µl per well, and then incubated at 37°C for 48 hours. The ADC-treated plate was incubated at room temperature outside the incubator for 5 minutes, 50 µl of a CellTiter-Glo solution was added to each well, and then the plate was shaken at 500 rpm for 2 minutes. After reacting for 10 minutes on a room temperature bench in a light-blocked state, ATP was measured using a Synergy HTX multimode reader (Biotek).
# To verify the effect of two types of EphA10-targeting ADCs A7-MMAE and 2W_MMAE produced using A7 and 2W antibodies, cell viability analysis of cancer cells was performed by measuring ATP as in Example 7-1 above.
molecule,measurement,setting,value
B1,EphA10 binding activity of the ADC compared with the antibody before ADC production,[1],greatly reduced
same,in vitro ADC efficacy,[2],greatly reduced
